{"source": "paper PMC7571800", "binders": {"B1": {"name": "CGI-LHX6 100 bp (dsDNA)", "DNA 1": "GTGGTGGTGGTGGTTGAGAAAATAAAACCCAGAGCGCTAGGAGCATCCGCCCGCTCGACGCGCGCCGGGAAATTGAAGCGGGGATATTGACACCGATTCA", "DNA 2": "TGAATCGGTGTCAATATCCCCGCTTCAATTTCCCGGCGCGCGTCGAGCGGGCGGATGCTCCTAGCGCTCTGGGTTTTATTTTCTCAACCACCACCACCAC"}}, "key": {"[1]": {"target": "SUZ12(N);RBBP4;MTF2 full-length (Homo sapiens;Homo sapiens;Homo sapiens?, UniProt Q15022;Q09028;Q9Y483 76-545;1-425;1-593, ||)", "sequence (Q15022 76-545, chain 1 of 3)": "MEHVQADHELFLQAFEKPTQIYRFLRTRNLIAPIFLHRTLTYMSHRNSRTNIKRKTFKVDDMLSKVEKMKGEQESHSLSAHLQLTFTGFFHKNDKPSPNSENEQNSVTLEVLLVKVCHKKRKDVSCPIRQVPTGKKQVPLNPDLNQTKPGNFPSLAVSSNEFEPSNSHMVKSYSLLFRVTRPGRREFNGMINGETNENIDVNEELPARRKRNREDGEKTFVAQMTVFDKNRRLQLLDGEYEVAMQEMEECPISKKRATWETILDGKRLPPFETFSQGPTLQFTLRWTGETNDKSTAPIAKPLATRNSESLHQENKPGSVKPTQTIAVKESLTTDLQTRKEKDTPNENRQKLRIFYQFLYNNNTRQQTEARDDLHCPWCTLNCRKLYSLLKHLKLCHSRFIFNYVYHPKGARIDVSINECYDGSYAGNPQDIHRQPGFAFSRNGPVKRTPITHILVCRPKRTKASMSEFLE", "sequence (Q09028 whole entry, chain 2 of 3)": "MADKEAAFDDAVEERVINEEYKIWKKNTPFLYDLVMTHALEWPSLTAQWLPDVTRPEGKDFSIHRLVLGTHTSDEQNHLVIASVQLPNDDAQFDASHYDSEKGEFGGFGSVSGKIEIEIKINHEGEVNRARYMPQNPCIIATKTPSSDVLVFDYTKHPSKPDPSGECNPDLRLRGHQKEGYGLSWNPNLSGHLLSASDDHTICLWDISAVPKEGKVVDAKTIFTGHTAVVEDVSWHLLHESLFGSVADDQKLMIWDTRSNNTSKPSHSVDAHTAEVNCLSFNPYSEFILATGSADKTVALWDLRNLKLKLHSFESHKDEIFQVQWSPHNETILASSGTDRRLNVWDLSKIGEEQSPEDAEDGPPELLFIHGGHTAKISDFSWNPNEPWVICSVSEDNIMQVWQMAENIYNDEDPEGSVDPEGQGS", "sequence (Q9Y483 whole entry, chain 3 of 3)": "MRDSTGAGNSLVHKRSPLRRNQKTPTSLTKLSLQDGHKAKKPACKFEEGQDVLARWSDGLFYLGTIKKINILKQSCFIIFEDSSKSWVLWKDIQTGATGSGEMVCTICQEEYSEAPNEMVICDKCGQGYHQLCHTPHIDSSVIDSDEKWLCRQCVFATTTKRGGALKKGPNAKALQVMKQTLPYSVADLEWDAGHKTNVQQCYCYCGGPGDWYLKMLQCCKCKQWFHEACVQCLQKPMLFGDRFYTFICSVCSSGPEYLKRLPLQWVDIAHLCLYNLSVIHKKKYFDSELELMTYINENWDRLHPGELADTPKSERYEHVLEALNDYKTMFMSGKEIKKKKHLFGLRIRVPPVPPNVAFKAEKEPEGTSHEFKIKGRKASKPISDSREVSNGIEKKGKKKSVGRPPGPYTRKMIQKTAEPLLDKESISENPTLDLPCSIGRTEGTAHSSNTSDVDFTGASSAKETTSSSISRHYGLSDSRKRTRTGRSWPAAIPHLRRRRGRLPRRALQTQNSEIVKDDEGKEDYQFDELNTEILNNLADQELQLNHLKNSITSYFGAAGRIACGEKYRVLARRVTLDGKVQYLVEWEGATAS", "assay": "EMSA"}, "[2]": {"target": "SUZ12(N) 3D;RBBP4;MTF2 full-length (Homo sapiens;Homo sapiens;Homo sapiens?, UniProt Q15022;Q09028;Q9Y483 76-545;1-425;1-593, K195D;R196D;K197D||)", "sequence (Q15022 76-545 K195D/R196D/K197D, chain 1 of 3)": "as the sequence (Q15022 76-545, chain 1 of 3) above, with K120D, R121D, K122D counted along it", "sequence (Q09028 whole entry, chain 2 of 3)": "as the sequence (Q09028 whole entry, chain 2 of 3) above", "sequence (Q9Y483 whole entry, chain 3 of 3)": "as the sequence (Q9Y483 whole entry, chain 3 of 3) above", "assay": "EMSA"}}}
{"binder": "B1", "values": [{"measurement": "Kd", "setting": "[1]", "result": 17.6, "unit": "nM"}, {"measurement": "binding signal", "setting": "[2]", "result": "> 25", "unit": "fold weaker than WT"}]}
